Assay results as given in PMC9002140 (Computational and Structural Biotechnology Journal, 2022).
Changes are numbered by the printed parent chain. Numbers in names are those of the source.

T1: thermolysin from B. thermoproteolyticus Rokko (Bacillus thermoproteolyticus Rokko, UniProt P00800 233-548)
T1 sequence (looked up): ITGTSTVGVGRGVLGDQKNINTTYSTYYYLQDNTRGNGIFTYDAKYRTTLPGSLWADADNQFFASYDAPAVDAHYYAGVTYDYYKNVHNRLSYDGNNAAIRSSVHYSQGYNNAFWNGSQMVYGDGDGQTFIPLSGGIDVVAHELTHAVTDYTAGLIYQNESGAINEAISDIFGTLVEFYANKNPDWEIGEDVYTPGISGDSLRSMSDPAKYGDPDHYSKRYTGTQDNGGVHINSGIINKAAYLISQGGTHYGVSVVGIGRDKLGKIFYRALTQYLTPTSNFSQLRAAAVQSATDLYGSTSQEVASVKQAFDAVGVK

T2: aureolysin isoform I, mature catalytic domain (A209–E509) (Staphylococcus aureus (strain V8-BC10), UniProt P81177 209-509)
T2 sequence (looked up): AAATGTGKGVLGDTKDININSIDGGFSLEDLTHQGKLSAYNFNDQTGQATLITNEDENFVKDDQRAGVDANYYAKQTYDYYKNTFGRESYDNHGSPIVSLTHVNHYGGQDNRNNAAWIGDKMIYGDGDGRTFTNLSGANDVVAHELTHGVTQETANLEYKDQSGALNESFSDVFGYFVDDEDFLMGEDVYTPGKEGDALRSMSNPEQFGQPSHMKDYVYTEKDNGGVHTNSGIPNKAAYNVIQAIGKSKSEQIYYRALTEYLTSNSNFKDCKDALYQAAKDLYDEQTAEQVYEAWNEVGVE

B1: R58E-IMPI (natural protein, Galleria mellonella)
chain: GMSIVLICNGGHEYYECGGACDNVCADLHIQNKTNCPIINIECNDKCYCEDGYARDVNGKCIPIKDCPKIRS
B2: I57F-IMPI (natural protein, Galleria mellonella)
chain: B1 chain with I41F, E42R

Key:
[1] = biological target: T1, thermolysin from B. thermoproteolyticus …; test: cell-based or functional assay
[2] = biological target: T2, aureolysin isoform I, mature catalytic …; test: enzyme inhibition assay

Binder | inhibition of thermolysin, against the wild type [1] | Ki [2]
B1 | ~200 fold | 
B2 |  | 346 nM
